Data from patent US20160319287A1.
No end group written: not given here. FI = 5(6)-carboxyfluorescein

Columns and labels:
Experiment in all cases: cell-based or functional assay
[1] = target: MBP-Int^C-TycB1 with the AceL-TerL MX1 mutant (M1^C)
[2] = target: M1^C-Trx-H6 (AceL-TerL Int^C mutant M1: N46D, L55Q) [thioredoxin: P0AA25]
[3] = target: M2^C-Trx-H6 (AceL-TerL Int^C mutant M2: S38G, N46I, N54D, L55Q) [thioredoxin: P0AA25]
Chain of M2^C-Trx-H6 (AceL-TerL Int^C mutant M2: S38G, N46I, N54D, L55Q) [thioredoxin: P0AA25] (P0AA25 other isoform, or with tags, fused parts or gaps S38G N46I N54D L55Q S38G N46I N54D L55Q): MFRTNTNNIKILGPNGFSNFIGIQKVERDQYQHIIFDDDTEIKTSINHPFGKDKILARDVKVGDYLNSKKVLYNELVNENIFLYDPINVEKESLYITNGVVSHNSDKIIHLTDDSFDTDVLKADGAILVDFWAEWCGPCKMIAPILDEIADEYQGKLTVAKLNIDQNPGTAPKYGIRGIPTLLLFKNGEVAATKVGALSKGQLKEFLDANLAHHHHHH

Chain of MBP-Int^C-TycB1 with the AceL-TerL MX1 mutant (M1^C) (main, as listed by the source, stated change not applied): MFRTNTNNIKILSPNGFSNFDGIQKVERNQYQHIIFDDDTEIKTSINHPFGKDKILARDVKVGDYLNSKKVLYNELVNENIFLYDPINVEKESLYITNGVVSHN
Chain of M1^C-Trx-H6 (AceL-TerL Int^C mutant M1: N46D, L55Q) [thioredoxin: P0AA25] (P0AA25 other isoform, or with tags, fused parts or gaps N46D L55Q N46D L55Q): as the sequence (P0AA25 other isoform, or with tags, fused parts or gaps S38G N46I N54D L55Q S38G N46I N54D L55Q) above, with G13S, I21D, D29N counted along it

splicing rate at 8° C. against the M86 DnaB mutant intein [1]	splicing rate at 8° C. against the unevolved wild-type AceL-TerL intein [1]	splicing yield at 8° C. [1]	splicing rate at 37° C. against the wild-type [2]	splicing rate at 37° C. against the wild-type [3]	Binder
13 fold higher	15 fold higher	80 to 95%			{FI}-KKEFECVYGDTMVETEDGKIKIEDLYKRLA [pepWT^N (FI-KKEFE-IntN), synthetic peptide with the Int^N of the AceL-TerL intein]
			29 fold faster	56 fold faster	{FI}-KKEFECVSGDTMVETEDGKIKIEDLYKRLA [pepM3^N (FI-KKEFE-IntN with the M3 Int^N, Y3S)]
